According to paper PMC8244335 (Current Research in Structural Biology, 2019):
“And” between values parts separate entries of the source, which are not always exact repeats. Equal values may be shown once.

Biological target: the molecule itself
Assay: AUC

B1: catalytically inactive S679A mutant of Escherichia coli (strain K12) LonA protease, full length (enzyme, E. coli (strain K12), UniProt P0A9M0 1-784, looked up)
chain: MNPERSERIEIPVLPLRDVVVYPHMVIPLFVGREKSIRCLEAAMDHDKKIMLVAQKEASTDEPGVNDLFTVGTVASILQMLKLPDGTVKVLVEGLQRARISALSDNGEHFSAKAEYLESPTIDEREQEVLVRTAISQFEGYIKLNKKIPPEVLTSLNSIDDPARLADTIAAHMPLKLADKQSVLEMSDVNERLEYLMAMMESEIDLLQVEKRIRNRVKKQMEKSQREYYLNEQMKAIQKELGEMDDAPDENEALKRKIDAAKMPKEAKEKAEAELQKLKMMSPMSAEATVVRGYIDWMVQVPWNARSKVKKDLRQAQEILDTDHYGLERVKDRILEYLAVQSRVNKIKGPILCLVGPPGVGKTSLGQSIAKATGRKYVRMALGGVRDEAEIRGHRRTYIGSMPGKLIQKMAKVGVKNPLFLLDEIDKMSSDMRGDPASALLEVLDPEQNVAFSDHYLEVDYDLSDVMFVATSNSMNIPAPLLDRMEVIRLSGYTEDEKLNIAKRHLLPKQIERNALKKGELTVDDSAIIGIIRYYTREAGVRGLEREISKLCRKAVKQLLLDKSLKHIEINGDNLHDYLGVQRFDYGRADNENRVGQVTGLAWTEVGGDLLTIETACVPGKGKLTYTGSLGEVMQESIQAALTVVRARAEKLGINPDFYEKRDIHVHVPEGATPKDGPAAGIAMCTALVSCLTGNPVRADVAMTGEITLRGQVLPIGGLKEKLLAAHRGGIKTVLIPFENKRDLEEIPDNVIADLDIHPVKRIEEVLTLALQNEPSGMQVVTAK
- stoichiometry N: 12 and 6
